Experimental data: patent publication US20250057976A1

Columns and labels:
[1] = target: TrkA (mouse) (UniProt Q3UFB7); test: cell-based or functional assay
[2] = target: IL31RA (mouse) (UniProt Q8K5B1); test: cell-based or functional assay
Chain of UniProt Q8K5B1 (Q8K5B1 19-716): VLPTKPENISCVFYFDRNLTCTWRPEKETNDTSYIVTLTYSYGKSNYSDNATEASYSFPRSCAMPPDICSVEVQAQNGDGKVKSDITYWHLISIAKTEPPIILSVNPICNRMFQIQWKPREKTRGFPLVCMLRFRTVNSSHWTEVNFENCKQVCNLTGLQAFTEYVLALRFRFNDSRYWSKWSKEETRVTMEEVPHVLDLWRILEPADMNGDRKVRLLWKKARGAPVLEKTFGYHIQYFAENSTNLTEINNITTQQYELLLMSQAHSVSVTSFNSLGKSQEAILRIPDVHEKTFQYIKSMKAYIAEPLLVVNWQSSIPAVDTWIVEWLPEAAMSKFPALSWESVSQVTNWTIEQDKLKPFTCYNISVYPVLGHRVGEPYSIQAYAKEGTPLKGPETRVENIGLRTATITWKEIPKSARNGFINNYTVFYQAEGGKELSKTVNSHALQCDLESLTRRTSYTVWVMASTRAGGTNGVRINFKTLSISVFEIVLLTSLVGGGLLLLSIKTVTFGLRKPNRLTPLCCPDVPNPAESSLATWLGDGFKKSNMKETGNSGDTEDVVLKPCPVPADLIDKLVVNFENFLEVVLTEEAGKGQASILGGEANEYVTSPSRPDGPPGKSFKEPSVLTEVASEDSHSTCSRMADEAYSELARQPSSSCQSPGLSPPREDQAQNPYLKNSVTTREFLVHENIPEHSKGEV

Chain of UniProt Q3UFB7 (Q3UFB7 34-799): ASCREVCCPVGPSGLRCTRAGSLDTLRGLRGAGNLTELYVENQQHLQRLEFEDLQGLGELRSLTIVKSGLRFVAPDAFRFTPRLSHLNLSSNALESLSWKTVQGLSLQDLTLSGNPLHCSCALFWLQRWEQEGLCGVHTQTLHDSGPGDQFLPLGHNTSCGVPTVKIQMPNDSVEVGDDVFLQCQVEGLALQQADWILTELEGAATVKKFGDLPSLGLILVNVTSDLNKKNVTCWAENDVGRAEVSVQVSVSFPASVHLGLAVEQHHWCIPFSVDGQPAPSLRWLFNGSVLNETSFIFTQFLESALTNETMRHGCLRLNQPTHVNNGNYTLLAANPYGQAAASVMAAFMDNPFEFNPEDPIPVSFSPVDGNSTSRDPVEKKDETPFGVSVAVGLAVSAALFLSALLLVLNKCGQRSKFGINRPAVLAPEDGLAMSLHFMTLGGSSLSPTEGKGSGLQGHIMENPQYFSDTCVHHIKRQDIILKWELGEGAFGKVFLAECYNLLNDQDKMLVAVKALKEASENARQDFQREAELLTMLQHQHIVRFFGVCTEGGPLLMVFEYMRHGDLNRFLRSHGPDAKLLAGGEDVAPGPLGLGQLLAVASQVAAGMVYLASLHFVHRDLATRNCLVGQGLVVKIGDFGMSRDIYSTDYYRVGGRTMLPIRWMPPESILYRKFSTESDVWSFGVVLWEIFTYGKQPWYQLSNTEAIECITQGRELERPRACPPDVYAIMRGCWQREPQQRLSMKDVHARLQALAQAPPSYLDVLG

Substance	TrkA positive DRG cells infected after retro-orbital injection of 3E+10 VG [1] [%]	infected DRG cells that are TrkA positive after retro-orbital injection of 3E+10 VG [1] [%]	overlap of virally infected (tdTomato) sensory neurons with TrkA antibody staining, trigeminal ganglia, 3 weeks after IV injection [1] [%]	overlap of virally infected cells with K14 positive keratinocytes, skin of wildtype mice, subcutaneous 3E+10 VG [2] [percent]
NGF^R121W-SNAP::AAV2-ΔHSPG (from UniProt P03135 1-735)	80	83	> 80	–
IL31^K134A-SNAP::AAV2-ΔHSPG (from UniProt P03135 1-735)	–	–	–	100
